Source: patent publication US20250312475A1
Read-outs that look alike come from different tables or passages of the source.

B1: Binding Protein 2 (protein)
light 1: DFVLTQSPHSLSVTPGESASISCKSSHSLIHGDRNNYLAWYVQKPGRSPQLLIYLASSRASGVPDRFSGSGSDKDFTLKISRVETEDVGTYYCMQGRESPWTFGQGTKVDIKDKTHTASELTQDPAVSVALKQTVTITCRGDSLRSHYASWYQKKPGQAPVLLFYGKNNRPSGIPDRFSGSASGNRASLTITGAQAEDEADYYCSSRDKSGSRLSVFGGGTKLTVLDKTHTRTVAAPSVFIFPPSDEQLKSGTASVVCLLNNFYPREAKVQWKVDNALQSGNSQESVTEQDSKDSTYSLSSTLTLSKADYEKHKVYACEVTHQGLSSPVTKSFNRGEC
heavy 1: EVRLVESGGGLVKPGGSLRLSCSASGFDFDNAWMTWVRQPPGKGLEWVGRITGPGEGWSVDYAESVKGRFTISRDNTKNTLYLEMNNVRTEDTGYYFCARTGKYYDFWSGYPPGEEYFQDWGQGTLVIVSSDKTHTQVHLTQSGPEVRKPGTSVKVSCKAPGNTLKTYDLHWVRSVPGQGLQWMGWISHEGDKKVIVERFKAKVTIDWDRSTNTAYLQLSGLTSGDTAVYYCAKGSKHRLRDYALYDDDGALNWAVDVDYLSNLEFWGQGTAVTVSSDKTHTASTKGPSVFPLAPSSKSTSGGTAALGCLVKDYFPEPVTVSWNSGALTSGVHTFPAVLQSSGLYSLSSVVTVPSSSLGTQTYICNVNHKPSNTKVDKKVEPKSCDKTHTCPPCPAPELLGGPSVFLFPPKPKDTLMISRTPEVTCVVVDVSHEDPEVKFNWYVDGVEVHNAKTKPREEQYNSTYRVVSVLTVLHQDWLNGKEYKCKVSNKALPAPIEKTISKAKGQPREPQVYTLPPCRDELTKNQVSLWCLVKGFYPSDIAVEWESNGQPENNYKTTPPVLDSDGSFFLYSKLTVDKSRWQQGNVFSCSVLHEALHSHYTQKSLSLSPG
heavy 2: RAHLVQSGTAMKKPGASVRVSCQTSGYTFTAHILFWFRQAPGRGLEWVGWIKPQYGAVNFGGGFRDRVTLTRDVYREIAYMDIRGLKPDDTAVYYCARDRSYGDSSWALDAWGQGTTVVVSAASTKGPSVFPLAPSSKSTSGGTAALGCLVKDYFPEPVTVSWNSGALTSGVHTFPAVLQSSGLYSLSSVVTVPSSSLGTQTYICNVNHKPSNTKVDKKVEPKSCDKTHTCPPCPAPELLGGPSVFLFPPKPKDTLMISRTPEVTCVVVDVSHEDPEVKFNWYVDGVEVHNAKTKPREEQYNSTYRVVSVLTVLHQDWLNGKEYKCKVSNKALPAPIEKTISKAKGQPREPQVCTLPPSRDELTKNQVSLSCAVKGFYPSDIAVEWESNGQPENNYKTTPPVLDSDGSFFLVSKLTVDKSRWQQGNVFSCSVLHEALHSHYTQKSLSLSPG
light 2: YIHVTQSPSSLSVSIGDRVTINCQTSQGVGSDLHWYQHKPGRAPKLLIHHTSSVEDGVPSRFSGSGFHTSFNLTISDLQADDIATYYCQVLQFFGRGSRLHIKRTVAAPSVFIFPPSDEQLKSGTASVVCLLNNFYPREAKVQWKVDNALQSGNSQESVTEQDSKDSTYSLSSTLTLSKADYEKHKVYACEVTHQGLSSPVTKSFNRGEC
B2: Binding Protein 3 (protein)
light 1: ASELTQDPAVSVALKQTVTITCRGDSLRSHYASWYQKKPGQAPVLLFYGKNNRPSGIPDRFSGSASGNRASLTITGAQAEDEADYYCSSRDKSGSRLSVFGGGTKLTVLDKTHTDFVLTQSPHSLSVTPGESASISCKSSHSLIHGDRNNYLAWYVQKPGRSPQLLIYLASSRASGVPDRFSGSGSDKDFTLKISRVETEDVGTYYCMQGRESPWTFGQGTKVDIKDKTHTRTVAAPSVFIFPPSDEQLKSGTASVVCLLNNFYPREAKVQWKVDNALQSGNSQESVTEQDSKDSTYSLSSTLTLSKADYEKHKVYACEVTHQGLSSPVTKSFNRGEC
heavy 1: QVHLTQSGPEVRKPGTSVKVSCKAPGNTLKTYDLHWVRSVPGQGLQWMGWISHEGDKKVIVERFKAKVTIDWDRSTNTAYLQLSGLTSGDTAVYYCAKGSKHRLRDYALYDDDGALNWAVDVDYLSNLEFWGQGTAVTVSSDKTHTEVRLVESGGGLVKPGGSLRLSCSASGFDFDNAWMTWVRQPPGKGLEWVGRITGPGEGWSVDYAESVKGRFTISRDNTKNTLYLEMNNVRTEDTGYYFCARTGKYYDFWSGYPPGEEYFQDWGQGTLVIVSSDKTHTASTKGPSVFPLAPSSKSTSGGTAALGCLVKDYFPEPVTVSWNSGALTSGVHTFPAVLQSSGLYSLSSVVTVPSSSLGTQTYICNVNHKPSNTKVDKKVEPKSCDKTHTCPPCPAPELLGGPSVFLFPPKPKDTLMISRTPEVTCVVVDVSHEDPEVKFNWYVDGVEVHNAKTKPREEQYNSTYRVVSVLTVLHQDWLNGKEYKCKVSNKALPAPIEKTISKAKGQPREPQVYTLPPCRDELTKNQVSLWCLVKGFYPSDIAVEWESNGQPENNYKTTPPVLDSDGSFFLYSKLTVDKSRWQQGNVFSCSVLHEALHSHYTQKSLSLSPG
heavy 2: B1 heavy 2
light 2: B1 light 2
B3: V1/V2 directed Ab “b” (antibody, V domains shown)
VH: QVQLVESGGGVVQPGTSLRLSCAASQFRFDGYGMHWVRQAPGKGLEWVASISHDGIKKYHAEKVWGRFTISRDNSKNTLYLQMNSLRPEDTALYYCAKDLREDECEEWWSDYYDFGKQLPCAKSRGGLVGIADNWGQGTMVTVSS
VL: QSVLTQPPSVSAAPGQKVTISCSGNTSNIGNNFVSWYQQRPGRAPQLLIYETDKRPSGIPDRFSASKSGTSGTLAITGLQTGDEADYYCATWAASLSSARVFGTGTKVIVL
B4: V1/V2 directed Ab “a” (antibody, V domains shown)
VH: QVHLTQSGPEVRKPGTSVKVSCKAPGNTLKTYDLHWVRSVPGQGLQWMGWISHEGDKKVIVERFKAKVTIDWDRSTNTAYLQLSGLTSGDTAVYYCAKGSKHRLRDYALYDDDGALNWAVDVDYLSNLEFWGQGTAVTVSS
VL: DFVLTQSPHSLSVTPGESASISCKSSHSLIHGDRNNYLAWYVQKPGRSPQLLIYLASSRASGVPDRFSGSGSDKDFTLKISRVETEDVGTYYCMQGRESPWTFGQGTKVDIK

Assays:
[1] = target: HIV-1 Env of 20 pseudotyped viruses representing 10 different HIV-1 clades; assay: cell-based or functional assay
[2] = target: HIV-1 Env of 20 pseudotyped viruses representing 10 different HIV-1 clades; assay: cell-based or functional assay; remark: listed apart in the source

Binder | % VS Neutralized: IC80 < 1 µg/mL (of 20 viruses) [1] | % VS Neutralized: IC80 < 50 µg/mL (of 20 viruses) [1] | Geometric Mean (IC80) [1] | Median IC80 [1] | Total VS Neutralized: IC80 < 1 µg/mL (of 20 viruses) [1] | Total VS Neutralized: IC80 < 50 µg/mL (of 20 viruses) [1] | % VS Neutralized: IC80 < 1 µg/mL (of 20 viruses) [2] | % VS Neutralized: IC80 < 50 µg/mL (of 20 viruses) [2] | Geometric Mean (IC80) [2] | Total VS Neutralized: IC80 < 1 µg/mL (of 20 viruses) [2] | Total VS Neutralized: IC80 < 50 µg/mL (of 20 viruses) [2]
B1 | 65% | 90% | 0.222 µg/mL | 0.375 µg/mL | 13 viruses | 18 viruses | – | – | – | – | –
B2 | 60% | 90% | 0.287 µg/mL | 0.469 µg/mL | 12 viruses | 18 viruses | – | – | – | – | –
B3 | – | – | – | – | – | – | 45% | 45% | 0.039 µg/mL | 9 viruses | 9 viruses
B4 | 45% | 55% | 0.094 µg/mL | – | 9 viruses | 11 viruses | – | – | – | – | –
